Results from article PMC7801473 (2021).

How the values were obtained:
[1] = molecular target: ASC^CARD (self-interaction; state of second copy not shown); experiment: M2H (mammalian two-hybrid, luciferase); conditions: HEK293T cells; luciferase normalized to Renilla; parent: est. 4.2; read off a plot
NLRP1^CARD (human) = NLRP1^CARD (human) (UniProt Q9C000); experiment: SEC-MALS; Superdex 200 10/30, 500 mM NaCl, 20 mM CHES-HCl pH 9.0, 500 uL at 0.5 mg/mL, 0.5 mL/min; monomer to dimer
MBP-ASC^CARD (human) = MBP-ASC^CARD (human) (UniProt Q9ULZ3); experiment: SEC; His-tagged MBP-ASC^CARD incubated with a threefold concentration of untagged NLRP1^CARD for 4 h, first purified by Ni-affinity chromatography, then Superdex gel filtration; complex in the void (~9 mL); also run at 0.15, 0.5 and 1.0 M NaCl (complex decreased with salt); ratio from gray scales of the PAGE gel
Sequence of MBP-ASC^CARD (human) (Q9ULZ3 95-195): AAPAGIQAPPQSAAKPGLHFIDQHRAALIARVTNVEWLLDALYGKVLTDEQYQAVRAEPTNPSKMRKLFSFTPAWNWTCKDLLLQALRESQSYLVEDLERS

Substance | response (fold of negative control) [1] | stoichiometry N (NLRP1^CARD (human)) | stoichiometry N (NLRP1^CARD : ASC^CARD) (MBP-ASC^CARD (human))
ASC^CARD (M2H fusion) (from UniProt Q9ULZ3-1) D134K | 1.4 | – | –
NLRP1^CARD (from UniProt Q9C000-1 1397-1462) (domain or fragment) | – | 2 | 0.5
ASC^CARD (M2H fusion) (from UniProt Q9ULZ3-1) N128A; E130R | 1.2 | – | –
ASC^CARD (M2H fusion) (from UniProt Q9ULZ3-1) D143A; E144A | 1.2 | – | –

Other lines, results leading:

response (fold of negative control) [1] | stoichiometry N (NLRP1^CARD (human)) | stoichiometry N (NLRP1^CARD : ASC^CARD) (MBP-ASC^CARD (human)) | Substance
1.2 | – | – | ASC^CARD (M2H fusion) (from UniProt Q9ULZ3-1) W169G; N170A
1.2 | – | – | ASC^CARD (M2H fusion) (from UniProt Q9ULZ3-1) R160E
1.2 | – | – | ASC^CARD (M2H fusion) (from UniProt Q9ULZ3-1) R125A; T127A
1.3 | – | – | ASC^CARD (M2H fusion) (from UniProt Q9ULZ3-1) R119D
